Substitutions are numbered along the chain they refer to. Entries after “also recorded” stand apart in the source; their conditions may differ. Like-named read-outs stand apart in the source and are kept apart here.

A word on the Kd: it is the free concentration of one partner at which half of the binding sites on the other are occupied at equilibrium, for simple one-to-one binding.

For one data set, the system named is gld-1 FBEa RNA. The settings on record: LST-1 peptide with FBF-2 RBD (no CT); cited from earlier work. The source says:
LST-1 is expressed in GSCs in response to signaling from the stem cell niche. The LST-1 protein is largely unstructured (Fig. 1b), including an N-terminal region that is sufficient for self-renewal of GSCs[22]. This LST-1 IDR region harbors two PUF Interacting Motifs (PIMs), LST-1 A and LST-1 B, that interact with FBF-2, each with a KxxL sequence[17],[22]. Crystal structures of FBF-2 bound to LST-1 A or B identify a seven-residue core region, including the KxxL sequence, that binds to FBF-2 with similar peptide backbone structure[17],[18]. The two LST-1 PIMs are biologically redundant for ... || If the FBF-2 CT reduces RNA-binding affinity (Fig. 3b) and competes with LST-1 for binding (Fig. 2c, d), why then does FBF-2 depend on LST-1 to repress RNAs in nematodes? To address this question, we explored RNA-binding affinities of FBF-2 RBD + CT in the presence of either LST-1 A or LST-1 B (Fig. 6; Supplementary Table 3). In contrast to results with FBF-2 RBD alone[17],[18], both LST-1 A and LST-1 B increased the RNA-binding affinity of FBF-2 RBD + CT.

The next data set has as its target T1, FBF-2 RBD + CT L610A (Caenorhabditis elegans, UniProt Q09312, L610A).
T1 construct: A cDNA fragment encoding C. elegans FBF-2 RBD + CT (residues 164-632) was cloned into the pSMT3 vector; His6-SUMO (N, cleaved yes); made in house; host or cells: E. coli BL21-CodonPlus (DE3)-RIL (as for wild type)
The data set is classed as binding, C. elegans. The following applies: pH 7.4.

Data set [1] has as its target T2, FBF-2 RBD+CT;LST-1 B peptide (Caenorhabditis elegans;Caenorhabditis …, UniProt Q09312;P91820 164-632;67-98, |).
T2 sequence 1: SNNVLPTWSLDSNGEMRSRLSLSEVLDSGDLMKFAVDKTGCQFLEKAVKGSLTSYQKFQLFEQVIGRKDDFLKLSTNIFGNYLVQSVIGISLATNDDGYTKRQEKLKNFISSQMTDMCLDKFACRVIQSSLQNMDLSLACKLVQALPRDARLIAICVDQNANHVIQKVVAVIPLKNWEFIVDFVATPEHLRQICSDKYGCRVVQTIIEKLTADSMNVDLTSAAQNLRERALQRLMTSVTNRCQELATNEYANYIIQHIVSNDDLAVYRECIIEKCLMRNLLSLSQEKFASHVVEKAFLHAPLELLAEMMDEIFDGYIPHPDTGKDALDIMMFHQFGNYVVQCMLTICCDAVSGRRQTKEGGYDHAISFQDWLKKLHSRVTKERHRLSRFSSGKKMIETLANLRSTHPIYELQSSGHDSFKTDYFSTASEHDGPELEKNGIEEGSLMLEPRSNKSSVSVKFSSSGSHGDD
T2 sequence 2: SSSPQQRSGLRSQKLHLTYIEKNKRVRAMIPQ
Briefly: EMSA; 50 uM LST-1 B; EMSA: FBF-2 in 20 mM HEPES pH 7.4, 150 mM NaCl, 0.5 mM TCEP mixed 1:1 with 5 nM final RNA in 10 mM HEPES pH 7.4, 0.01% Tween 20, 0.1 mg/ml BSA, 0.1 mg/ml yeast. The following applies: protein: recombinant;recombinant; tags: none (His6-SUMO removed with Ulp1);none (His6-SUMO removed with Ulp1); copies: 1;1; label: 3'-Cy5. A general note: In EMSA bound probe runs differently from free probe, usually more slowly.

In data set [2] the target is T3, FBF-2 RBD+CT L610A;LST-1 B peptide (Caenorhabditis elegans;Caenorhabditis …, UniProt Q09312;P91820 164-632;67-98, L610A|).
T3 sequence 1: T2 sequence 1 with L447A
T3 sequence 2: T2 sequence 2
The data set is described as above. The settings on record: protein: recombinant;recombinant; tags: none (His6-SUMO removed with Ulp1);none (His6-SUMO removed with Ulp1); copies: 1;1; label: 3'-Cy5.

Another data set has as its target T4, FBF-2 RBD+CT Y479A (Caenorhabditis elegans, UniProt Q09312 164-632, Y479A).
T4 sequence: T2 sequence 1 with Y316A
Description: EMSA; 50 uM LST-1 B present (Y479A disrupts LST-1 binding, no complex); EMSA: FBF-2 in 20 mM HEPES pH 7.4, 150 mM NaCl, 0.5 mM TCEP mixed 1:1 with 5 nM final RNA in 10 mM HEPES pH 7.4, 0.01% Tween 20, 0.1 mg/ml BSA, 0.1 mg/ml yeast. The settings on record: protein: recombinant; tags: none (His6-SUMO removed with Ulp1); label: 3'-Cy5.

T1 sequence (Q09312 164-632 L610A): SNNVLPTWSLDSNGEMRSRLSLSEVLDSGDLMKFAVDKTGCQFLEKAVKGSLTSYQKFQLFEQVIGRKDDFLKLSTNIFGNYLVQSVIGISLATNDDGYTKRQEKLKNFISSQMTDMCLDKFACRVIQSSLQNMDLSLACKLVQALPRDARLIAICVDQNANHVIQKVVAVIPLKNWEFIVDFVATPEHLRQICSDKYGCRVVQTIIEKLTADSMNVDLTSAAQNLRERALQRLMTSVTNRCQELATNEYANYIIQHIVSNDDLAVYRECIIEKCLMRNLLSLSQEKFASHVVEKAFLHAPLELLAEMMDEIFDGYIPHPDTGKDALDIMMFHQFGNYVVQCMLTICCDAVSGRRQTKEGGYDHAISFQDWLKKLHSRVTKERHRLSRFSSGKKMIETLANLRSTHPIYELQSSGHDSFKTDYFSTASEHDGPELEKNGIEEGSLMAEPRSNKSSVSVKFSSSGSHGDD

Consider “LST-1 B: LST-1 B peptide, residues 67–98, expressed in E. coli (SSSPQQRSGLRSQKLHLTYIEKNKRVRAMIPQ; left off: His6-SUMO, N-terminal, cleaved)”, for which the “effect on RNA-binding affinity of FBF-2 RBD” value in the data set on gld-1 FBEa RNA is recorded as “decreased the RNA-binding affinity; also recorded: decreases RNA-binding affinity”. Besides, the “∆G” value with FBF-2 RBD + CT L610A is -9.85 kcal/mol. Besides, in the data set with FBF-2 RBD + CT L610A (replicate 1, 20 °C), the “-T∆S” value is 6 kcal/mol, the “∆G” value was -9.56 kcal/mol and the “∆H” value was -15.5 kcal/mol. Further, in the data set with FBF-2 RBD + CT L610A (replicate 2, 20 °C), the “-T∆S” value was found to be 6.98 kcal/mol and the “∆H” value was -16.8 kcal/mol.
On to AUCAUGUGCCAUAC (ssRNA) [gld-1 FBEa RNA (EMSA)], for which the Kd is 68 ± 21 nM in data set [1], 82 ± 18 nM in data set [2] and 41 ± 6 nM with FBF-2 RBD+CT Y479A.

The values are drawn from paper PMC10641069, “Intra- and inter-molecular regulation by intrinsically-disordered regions governs PUF protein RNA binding” (Nature Communications, 2023).
